“And” between values parts separate entries of the source, which are not always exact repeats. Identical values can stand only once.
How the values were obtained:
[1] = molecular target: SNARE:Complexin-1 complex (UniProt P60881); assay: native MS; equimolar Complexin-1 added to the pre-assembled SNARE complexes
[2] = molecular target: fully assembled ternary SNARE complex (SNAP25:Syntaxin-1A:Synaptobrevin-2, 3Q:1R) (UniProt P60881); assay: native MS; Synaptobrevin-2, SNAP25 and Syntaxin-1A mixed 1:1:1, incubated overnight
[3] = molecular target: fully assembled ternary SNARE complex (SNAP25:Syntaxin-1A:Synaptobrevin-2, 3Q:1R) (UniProt P60881); assay: native MS; equimolar Syntaxin-1A added to the pre-assembled 2:1 SNAP25:Synaptobrevin-2 complex
[4] = molecular target: fully assembled ternary SNARE complex (SNAP25:Syntaxin-1A:Synaptobrevin-2, 3Q:1R) (UniProt P60881); assay: native MS; 1.2 molar excess of Synaptobrevin-2 added to pre-assembled binary SNAP25:Syntaxin-1A complexes (1:2 mix), analysed directly
[5] = molecular target: pre-assembled binary SNAP25:Syntaxin-1A complex (1:2, 4Q:0R) (UniProt P60881); assay: native MS; SNAP25 and Syntaxin-1A mixed 1:2; 200 mM ammonium acetate

## SNARE:Complexin-1 complex (from UniProt P60881 1-206; P32851 1-262; P63045 1-96; P63041 1-134)
[1]
  stoichiometry N: 2

## fully assembled ternary SNARE complex (SNAP25:Syntaxin-1A:Synaptobrevin-2, 3Q:1R) (from UniProt P60881 1-206; P32851 1-262; P63045 1-96)
[2]
  stoichiometry N: 2 and 3
[3]
  stoichiometry N: 2 and 3 and 4
[4]
  stoichiometry N: 2 and 3

## pre-assembled binary SNAP25:Syntaxin-1A complex (1:2, 4Q:0R) (from UniProt P60881 1-206; P32851 1-262)
[5]
  stoichiometry N: 2

Source: PMC9941103
